Experimental data taken from patent US20230183661A1, “BICOMPATIBLE PEPTIDEBIOCOMPATIBLE PEPTIDES FOR INHIBITION OF AGGREGATION OF B-AMYLOID PROTEIN” (Catholic University Industry Academic Cooperation Foundation, priority 2017, published 2023).

How the values were obtained:
[1] = target: β-amyloid (Aβ) overexpressed in nerve cells (UniProt P05067); assay: Co-IP from N2a cells, relative score
[2] = target: β-amyloid (Aβ) overexpressed in nerve cells (UniProt P05067); assay: cell-based or functional assay

Peptide 5 (β 1-5 fragment of SOD1), NABi (Natural Amyloid β Binder and Amyloid β aggregation inhibitor), sequence (P00441 2-91): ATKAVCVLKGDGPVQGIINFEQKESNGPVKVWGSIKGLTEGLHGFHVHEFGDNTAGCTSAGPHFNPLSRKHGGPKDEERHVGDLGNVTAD

Binding strength with β-amyloid [1]	fluorescence recovery after photobleaching (FRAP) of Aβ in N2a cells, within 20 seconds [2]	fluorescence recovery after photobleaching (FRAP) of Aβ in N2a cells, within 90 seconds [2]	Substance
1	50%	75%	Peptide 5 (β 1-5 fragment of SOD1), NABi (Natural Amyloid β Binder and Amyloid β aggregation inhibitor)
3.5	–	–	Peptide 2 (β 2-7/T fragment of SOD1) (from UniProt P00441 16-145)
0	–	–	Peptide 3 (β 4-6 fragment of SOD1) (from UniProt P00441 40-114)
0	–	–	Peptide 6 (β 5-8 fragment of SOD1) (from UniProt P00441 81-154)
